Biological target: T1, IL-4Rα ectodomain (site-specifically biotinylated IL-4Rα ectodomain protein) (human, UniProt P24394 26-232, site-specifically biotinylated (site not stated))
T1 construct: extracellular domain; Immobilised on a streptavidin-coated SPR chip; also called IL-4Rα ECD; IL-4 receptor α
T1 sequence (looked up): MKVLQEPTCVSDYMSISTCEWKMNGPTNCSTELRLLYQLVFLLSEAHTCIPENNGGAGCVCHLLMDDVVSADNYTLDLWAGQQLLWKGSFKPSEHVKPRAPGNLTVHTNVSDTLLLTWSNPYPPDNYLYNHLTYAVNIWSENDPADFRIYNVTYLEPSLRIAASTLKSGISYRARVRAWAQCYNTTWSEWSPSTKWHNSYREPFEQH
Test: in vitro interaction analysis (SPR) on IL-4Rα

Kd: ~0.218 nM
B1: IL-4 mutein F82D Q20N T28N K61N R121C-Glc (Hek293-derived, hyper-glycosylated) (ligand)
chain: HKCDITLQEIIKTLNSLTENKTLCTELNVTDIFAASKNTTEKETFCRAATVLRQFYSHHENDTRCLGATAQQFHRHKQLIRDLKRLDRNLWGLAGLNSCPVKEANQSTLENFLERLKTIMCEKYSKCSS
modifications: complex N-glycans at positions 38, 20, 28 and 61; disulphide conjugated glucose at Cys121
notes: also called Q20N/T28N/K61N/F82D/R121C-Glc; 3rd generation IL-4 antagonist; not shown: C-terminal thrombin cleavage site and hexahistidine tag of the modified pHLsec vector
